The source of these data is patent US20240417457A1.

The experiment has as its target FRα covalently bound to a CM5 sensor chip (UniProt P15328). The experiment can be described thus: SPR (Biacore T200), FRα amine-coupled to a CM5 chip, 180 sec association then dissociation. For orientation: In SPR one partner is held on a chip, and binding of the other changes the refractive index at the surface.
Sequence of UniProt P15328 (P15328 25-234 limits assumed): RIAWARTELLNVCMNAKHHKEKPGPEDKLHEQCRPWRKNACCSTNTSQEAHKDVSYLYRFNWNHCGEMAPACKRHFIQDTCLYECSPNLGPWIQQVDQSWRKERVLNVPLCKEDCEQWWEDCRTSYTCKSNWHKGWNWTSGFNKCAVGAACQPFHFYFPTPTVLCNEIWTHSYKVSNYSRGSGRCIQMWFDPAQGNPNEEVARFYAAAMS

B1: Antibody I (ScFv, SEQ. ID. NOs: 9-10) (scFv, part only; not given: linker, domain order, His tag, V domains shown, not shown: another chain or arm of the molecule; small tags and cut ends)
VH: QVQLVQSGSELKKPGASVKVSCKASDYIFTNYDITWVRQAPGQGLEWMGEIDPRSGKSYYNEKFKGKSTLTADKSVSTAYLQISSLKAEDTAVYFCATMYYYGSSPPMDYWGQGTTVTVS
VL: DIQMTQSPSSLSASVGDRVTITCRASQDINNFLNWYQQKPGKAPKLLIYYTSRLHSGVPSRFSGSGSGTDYTFTISSLQPEDIATYFCQQSSTIPRTFGQGTKLEIK
As to B1, the binding at time 300 sec as percent of the plateau came to 75%.
